Assay results reported in patent publication US20240261333A1, “NOVEL TARGETS FOR ENHANCING ANTI-TUMOR IMMUNITY” (THE BROAD INSTITUTE, INC., priority 2021, published 2024).

Target: T1, B3GNT2 (Homo sapiens, UniProt Q9NY97)
T1 construct: The respective ORFs of candidate genes [CD274 (NM_014143), MCL1 (NM_021960), JUNB (NM_002229), and B3GNT2 (NM_006577)] were synthesized; expressed in transfected cells; host or cells: A375 melanoma cells (lentiviral ORF overexpression)
T1 sequence (Q9NY97 1-397): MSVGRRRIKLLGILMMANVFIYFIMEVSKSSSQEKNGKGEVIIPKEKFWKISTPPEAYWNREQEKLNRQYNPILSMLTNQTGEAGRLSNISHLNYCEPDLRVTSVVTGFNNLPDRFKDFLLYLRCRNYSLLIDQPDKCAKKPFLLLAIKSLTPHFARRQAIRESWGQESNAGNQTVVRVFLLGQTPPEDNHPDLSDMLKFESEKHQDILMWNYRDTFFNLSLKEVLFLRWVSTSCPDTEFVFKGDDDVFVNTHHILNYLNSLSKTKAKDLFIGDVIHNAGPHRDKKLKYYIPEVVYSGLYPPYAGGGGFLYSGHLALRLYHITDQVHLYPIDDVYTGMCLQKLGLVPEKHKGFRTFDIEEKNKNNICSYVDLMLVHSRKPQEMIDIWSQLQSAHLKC
Experiment: Co-IP of FLAG-tagged B3GNT2 followed by mass spectrometry
Format: cell-based
Parameters: C-term IgG / C-term flag: unit not given here
Conditions: Co-IP followed by mass spectrometry of B3GNT2; for C-term flag / C-term IgG: C-term tag; for C-term flag / N-term FLAG: FLAG pull-down; for C-term IgG / N-term IgG: IgG pull-down; for N-term FLAG / N-term IgG: N-term tag
Method in brief: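 Co-purifying proteins were identified by fractionated nano-LC–MS/MS on an Orbitrap Elite, run data-dependent. Beforehand, lysates in 1% Triton X-100/HEPES buffer were incubated overnight at 4° C with anti-FLAG or […] and pulled down on Protein A/G magnetic beads for 4 h. Duplicate biological replicates.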

Row | Molecule | C-term flag | C-term IgG | N-term FLAG | N-term IgG
1 | DNAJC3 (protein) GVNADVEKHLELGKKLLAAGQLADALSQFHAAVDGDPDNYIAYYRRATVFLAMGKSKAALPDLTKVIQLKMDFTAARLQRGHLLLKQGKLDEAEDDFKKVLKSNPSENEEKEAQSQLIKSDEMQRLRSQALNAFGSGDYTAAIAFLDKILEVCVWDAELRELRAECFIKEGEPRKAISDLKAASKLKNDNTEAFYKISTLYYQLGDHELSLSEVRECLKLDQDHKRCFAHYKQVKKLNKLIESAEELIRDGRYTDATSKYESVMKTEPSIAEYTVRSKERICHCFSKDEKPVEAIRVCSEVLQMEPDNVNALKDRAEAYLIEEMYDEAIQDYETAQEHNENDQQIREGLEKAQRLLKQSQKRDYYKILGVKRNAKKQEIIKAYRKLALQWHPDNFQNEEEKKKAEKKFIDIAAAKEVLSDPEMRKKFDDGEDPLDAESQQGGGGNPFHRSWNSWQGFNPFSSGGPFRFKFHFN | 3 | 0 | 0 | 0
2 | FUBP3 (protein) AELVQGQSAPVGMKAEGFVDALHRVRQIAAKIDSIPHLNNSTPLVDPSVYGYGVQKRPLDDGVGNQLGALVHQRTVITEEFKVPDKMVGFIIGRGGEQISRIQAESGCKIQIASESSGIPERPCVLTGTPESIEQAKRLLGQIVDRCRNGPGFHNDIDSNSTIQEILIPASKVGLVIGRGGETIKQLQERTGVKMVMIQDGPLPTGADKPLRITGDAFKVQQAREMVLEIIREKDQADFRGVRGDFNSRMGGGSIEVSVPRFAVGIVIGRNGEMIKKIQNDAGVRIQFKPDDGISPERAAQVMGPPDRCQHAAHIISELILTAQERDGFGGLAAARGRGRGRGDWSVGAPGGVQEITYTVPADKCGLVIGKGGENIKSINQQSGAHVELQRNPPPNSDPNLRRFTIRGVPQQIEVARQLIDEKVGGTNLGAPGAFGQSPFSQPPAPPHQNTFPPRSSGCFPNMAAKVNGNPHSTPVSGPPAFLTQGWGSTYQAWQQPTQQVPSQQSQPQSSQPNYSKAWEDYYKKQSHAASAAPQASSPPDYTMAWAEYYRQQVAFYGQTLGQAQAHSQEQ | 9 | 7 | 8 | 8
3 | DDX5 (protein) MSGYSSDRDRGRDRGFGAPRFGGSRAGPLSGKKFGNPGEKLVKKKWNLDELPKFEKNFYQEHPDLARRTAQEVETYRRSKEITVRGHNCPKPVLNFYEANFPANVMDVIARQNFTEPTAIQAQGWPVALSGLDMVGVAQTGSGKTLSYLLPAIVHINHQPFLERGDGPICLVLAPTRELAQQVQQVAAEYCRACRLKSTCIYGGAPKGPQIRDLERGVEICIATPGRLIDFLECGKTNLRRTTYLVLDEADRMLDMGFEPQIRKIVDQIRPDRQTLMWSATWPKEVRQLAEDFLKDYIHINIGALELSANHNILQIVDVCHDVEKDEKLIRLMEEIMSEKENKTIVFVETKRRCDELTRKMRRDGWPAMGIHGDKSQQERDWVLNEFKHGKAPILIATDVASRGLDVEDVKFVINYDYPNSSEDYIHRIGRTARSTKTGTAYTFFTPNNIKQVSDLISVLREANQAINPKLLQLVEDRGSGRSRGRGGMKDDRRDRYSAGKRGGFNTFRDRENYDRGYSSLLKRDFGAKTQNGVYSAANYTNGSFGSNFVSAGIQTSFRTGNPTGTYQNGYDSTQQYGSNVPNMHNGMNQQAYAYPATAAAPMIGYPMPTGYSQ | 22 | 16 | 16 | 18
4 | ATXN2 (protein) MRSAAAAPRSPAVATESRRFAAARWPGWRSLQRPARRSGRGGGGAAPGPYPSAAPPPPGPGPPPSRQSSPPSASDCFGSNGNGGGAFRPGSRRLLGLGGPPRPFVVLLLPLASPGAPPAAPTRASPLGARASPPRSGVSLARPAPGCPRPACEPVYGPLTMSLKPQQQQQQQQQQQQQQQQQQQQQQQPPPAAANVRKPGGSGLLASPAAAPSPSSSSVSSSSATAPSSVVAATSGGGRPGLGRGRNSNKGLPQSTISFDGIYANMRMVHILTSVVGSKCEVQVKNGGIYEGVFKTYSPKCDLVLDAAHEKSTESSSGPKREEIMESILFKCSDFVVVQFKDMDSSYAKRDAFTDSAISAKVNGEHKEKDLEPWDAGELTANEELEALENDVSNGWDPNDMFRYNEENYGVVSTYDSSLSSYTVPLERDNSEEFLKREARANQLAEEIESSAQYKARVALENDDRSEEEKYTAVQRNSSEREGHSINTRENKYIPPGQRNREVISWGSGRQNSPRMGQPGSGSMPSRSTSHTSDFNPNSGSDQRVVNGGVPWPSPCPSPSSRPPSRYQSGPNSLPPRAATPTRPPSRPPSRPSRPPSHPSAHGSPAPVSTMPKRMSSEGPPRMSPKAQRHPRNHRVSAGRGSISSGLEFVSHNPPSEAATPPVARTSPSGGTWSSVVSGVPRLSPKTHRPRSPRQNSIGNTPSGPVLASPQAGIIPTEAVAMPIPAASPTPASPASNRAVTPSSEAKDSRLQDQRQNSPAGNKENIKPNETSPSFSKAENKGISPVVSEHRKQIDDLKKFKNDFRLQPSSTSESMDQLLNKNREGEKSRDLIKDKIEPSAKDSFIENSSSNCTSGSSKPNSPSISPSILSNTEHKRGPEVTSQGVQTSSPACKQEKDDKEEKKDAAEQVRKSTLNPNAKEFNPRSFSQPKPSTTPTSPRPQAQPSPSMVGHQQPTPVYTQPVCFAPNMMYPVPVSPGVQPLYPIPMTPMPVNQAKTYRAVPNMPQQRQDQHHQSAMMHPASAAGPPIAATPPAYSTQYVAYSPQQFPNQPLVQHVPHYQSQHPHVYSPVIQGNARMMAPPTHAQPGLVSSSATQYGAHEQTHAMYACPKLPYNKETSPSFYFAISTGSLAQQYAHPNATLHPHTPHPQPSATPTGQQQSQHGGSHPAPSPVQHHQHQAAQALHLASPQQQSAIYHAGLAPTPPSMTPASNTQSPQNSFPAAQQTVFTIHPSHVQPAYTNPPHMAHVPQAHVQSGMVPSHPTAHAPMMLMTTQPPGGPQAALAQSALQPIPVSTTAHFPYMTHPSVQAHHQQQL | 3 | 3 | 4 | 3

The next lines start with the values.

Row | C-term flag | C-term IgG | N-term FLAG | N-term IgG | Molecule
5 | 4 | 0 | 4 | 2 | LSM12 (protein) AAPPGEYFSVGSQVSCRTCQEQRLQGEVVAFDYQSKMLALKCPSSSGKPNHADILLINLQYVSEVEIINDRTETPPPLASLNVSKLASKARTEKEEKLSQAYAISAGVSLEGQQLFQTIHKTIKDCKWQEKNIVVMEEVVITPPYQVENCKGKEGSALSHVRKIVEKHFRDVESQKILQRSQAQQPQKEAALSS
6 | 3 | 3 | 4 | 3 | MOV10 (protein) MPSKFSCRKLRETGQRFESFLAERGLDLETDRERLRTIYNHDFKPSYGTPAPGFSSMLYGMKIANLAFVTKTRVRFFKLDRWADVQLPEKRRIKPGSNISKQHRSLLARIFHDRAEYLHGKHGVDVEVQGPHEARDGQLLIHLDLNRKEVLTLRLRNGGSKPVTLTHLFPLCWTPQFVFYHGEQDLPCPLGPGESYELHIYCKTSIVGYFPATVLWELLGPGESGAEGAETFYIARFLAAVAHSPLAAQLKPTTPFKRPPRLTRNSVLTNRIEEGERPDRAKGYELELSLALGTYYPPILLRQLLPTLLQGPSIFTAPKEVAEIKAQLETTLKSRNYEVKLRLLLHLEELQMEHDIRHYDLDSVPMTWDPVDQNPRLLTLEVPGVAESRPSVLRGDHLFALLSSETQQDDPVTYKGFVHKVELDRVKLSFSTSLLSRFVDGLTFKVNFTFNRQPLRVQHRALELTGRWVLWPMLFPVASRGVSLLPSDVKFKLYDRSLESNPEQLQAMKHIVRGTTRPAPYIIFGPPGTGKTVTLVEAIKQVVKHLPKAHILACAPSNSGADLLCQRLRVHLPSSIYRLLAPSRDIRMVPEDIKTCCNWDAKKGEYVYPAKKHLQQYRVLITTLITASRLVSAQFPIDHFTHIFIDEAGHCMEPESLVAIAGLMDVKETGNPGGQLVLAGDPRQLGPVLRSPLALKHGLGYSLLERLLAYNSLYKKGPNGYDPQFITKLLRNYRSHPTILDIPNQLYYDGELQACADVVDRERFCRWEGLPQQGFPIIFHGVMGKDEREGNSPSFFNPEEAATVTSYLKQLLAPSSKKGKARLSPRNVGVISPYRKQVEKIRYCITKLDRELRGLDDIKDLKVGSVEEFQGQERSVILISTVRSSQSFVQLDLDFNLGFLKNPKRFNVAVTRAKALLIVVGNPLLLGHDPDWKTFLEFCKENGGYTGCPFPAKLDLQQGQDLLQGLSKLSPSTSGPRRHQNLPQEREGEGGLPLQVEPEWRNEL
7 | 0 | 0 | 3 | 0 | GGCT (protein) MANSGCKDVTGPDEESFLYFAYGSNLLTERIHLRNPSAAFFCVARLQDFKLDFGNSQGKTSQTWHGGIATIFQSPGDEVWGVVWKMNKSNLNSLDEQEGVKSGMYVVIEVKVATQEGKEITCRSYLMTNYESAPPSPQYKKIICMGAKENGLPLEYQEKLKAIEPNDYTGKVSEEIEDIIKKGETQTL
